These results are taken from US20090285799A1 (CSL, published 2009).

Substitutions are numbered along the chain they refer to.

To fix the notation:
T1: IL-13Rα1 on whole blood cells or PBMCs (TARC release assay)
T1 sequence (P78552 whole entry, species assumed, looked up): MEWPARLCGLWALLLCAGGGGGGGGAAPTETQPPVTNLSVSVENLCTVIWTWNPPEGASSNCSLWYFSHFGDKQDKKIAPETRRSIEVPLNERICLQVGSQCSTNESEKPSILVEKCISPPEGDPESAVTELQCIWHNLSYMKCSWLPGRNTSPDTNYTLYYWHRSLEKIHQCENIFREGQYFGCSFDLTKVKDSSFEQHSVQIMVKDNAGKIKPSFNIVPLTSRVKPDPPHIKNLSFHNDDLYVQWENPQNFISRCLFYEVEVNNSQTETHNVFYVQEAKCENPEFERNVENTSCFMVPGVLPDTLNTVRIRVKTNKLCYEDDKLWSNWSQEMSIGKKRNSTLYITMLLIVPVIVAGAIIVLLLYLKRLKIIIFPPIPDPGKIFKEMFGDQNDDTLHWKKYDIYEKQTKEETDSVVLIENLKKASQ

T2: human IL-13Rα1 on normal human dermal fibroblast (NHDF) cells (human, UniProt P78552 27-427)
T2 sequence: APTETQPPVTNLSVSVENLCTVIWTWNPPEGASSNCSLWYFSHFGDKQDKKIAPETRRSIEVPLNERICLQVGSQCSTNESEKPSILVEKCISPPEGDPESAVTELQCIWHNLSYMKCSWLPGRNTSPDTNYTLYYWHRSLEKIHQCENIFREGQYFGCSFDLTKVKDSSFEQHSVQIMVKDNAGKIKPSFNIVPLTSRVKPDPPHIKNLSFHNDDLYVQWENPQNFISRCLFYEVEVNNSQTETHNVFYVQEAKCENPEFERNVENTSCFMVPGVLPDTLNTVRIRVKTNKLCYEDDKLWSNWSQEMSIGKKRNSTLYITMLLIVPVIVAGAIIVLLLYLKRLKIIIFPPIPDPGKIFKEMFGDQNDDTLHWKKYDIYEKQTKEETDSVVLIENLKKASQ

T3: hIL-13Rα1.ECR (N-terminal FLAG-tagged fusion protein of the extracellular region of human IL-13Rα1) (human, UniProt P78552 29-343)
T3 construct: also called human IL-13Rα1.ECR; hIL-13Rα1 extracellular domain
T3 sequence: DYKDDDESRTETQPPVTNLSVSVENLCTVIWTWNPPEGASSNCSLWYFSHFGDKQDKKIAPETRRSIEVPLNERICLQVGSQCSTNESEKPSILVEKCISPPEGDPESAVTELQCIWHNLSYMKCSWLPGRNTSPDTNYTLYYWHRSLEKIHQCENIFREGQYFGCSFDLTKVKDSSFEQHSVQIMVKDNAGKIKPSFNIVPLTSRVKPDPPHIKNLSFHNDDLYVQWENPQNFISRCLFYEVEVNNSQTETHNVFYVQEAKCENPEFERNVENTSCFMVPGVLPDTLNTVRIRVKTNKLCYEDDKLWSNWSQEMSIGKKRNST

B1: 8B4 (antibody, V domains shown)
VH: EVQVLESGGGLVQPGGSLRLSCAASGFTFSNYAMTWVRQAPGKGLEWVSTISGRGYSIYYADSVKGRFTISRDNSKNTVYLQMNSLRAEDTAVYYCAKEEGHWYFDVWGRGTLVTVSS
VL: EIVLTQSPDFQSVTPKEKVTITCRASQSIGSSLHWYQQKPDQSPKLLIKYASQSFSGVPSRFSGSGSGTDFTLTINSLEAEDAAAYYCHQSSSLPYTFGQGTKLEIK
notes: Human monoclonal antibody purified from a hybridoma of HuMAb transgenic mice; also called PTA-6934
B2: 6C11 (antibody, V domains shown)
VH: B1 VH with S30N, M34L, Y104F
VL: B1 VL
notes: Human monoclonal antibody purified from a hybridoma of HuMAb transgenic mice; also called PTA-6930
B3: 8B4-IgG4 (antibody, V domains shown)
VH: B1 VH
VL: B1 VL
notes: Recombinant full-length antibody of subclass IgG4 with kappa light chain (Lonza pCONGAMMA4/pCONKAPPA vectors), made in 293 cells
B4: 8B4-21C (eotaxin assay) (antibody, V domains shown)
VH: B1 VH
VL: B1 VL with H89K, Q90S, S92A, S93G
B5: 8B4-36 (eotaxin assay) (antibody, V domains shown)
VH: B1 VH
VL: B1 VL with H89V, Q90S, S92W, S93G
B6: 8B4-74C (eotaxin assay) (antibody, V domains shown)
VH: B1 VH
VL: B1 VL with H89M, Q90S, S92L, S93G
B7: 8B4-78M (optimized antibody, eotaxin assay) (antibody, V domains shown)
VH: B1 VH
VL: B1 VL with H89M, Q90S, S92M, S93G
B8: 8B4-82 (eotaxin assay) (antibody, V domains shown)
VH: B1 VH
VL: B1 VL with H89A, Q90S, S92R, S93G
B9: 2B6 (antibody, V domains shown)
VH: QVQLVESGGGVVQPGRSLRLSCAASGFTFSYYGMHWVRQAPGKGLEWVAFIWYDGSNKYYEDSVKGRFTISRDNSKNTLYLQMNSLRAEDTAVYYCARVAAAGAVEYFQHWGQGTLVTVSS
VL: AIQLTQSPSSLSASVGDRVTITCRASQVISSVLAWYQQKSGKGPKLLIYDASSLESGVPSRFSGSGSGTDFTLTISSLQPEDFATYYCQQFNSYPLTFGGGTKVEIK
notes: Human monoclonal antibody purified from a hybridoma of HuMAb transgenic mice; also called PTA-6932; 2136
B10: 8B4 (Fab) (Fab, V domains shown)
VH: B1 VH
VL: B1 VL
notes: Fab format from vector pFab3d
B11: 8B4-74C (Fab) (Fab, V domains shown)
VH: B1 VH
VL: B1 VL with H89M, Q90S, S92L, S93G
notes: Fab format; only CDR3s were mutated
B12: 8B4-78M (Fab) (Fab, V domains shown)
VH: B1 VH
VL: B1 VL with H89M, Q90S, S92M, S93G
notes: as for B11
B13: 8B4-21C (Fab) (Fab, V domains shown)
VH: B1 VH
VL: B1 VL with H89K, Q90S, S92A, S93G
notes: as for B11
B14: 8B4-18C (Fab) (Fab, V domains shown)
VH: B1 VH
VL: B1 VL with H89M, Q90N, S92L, S93G
notes: as for B11
B15: 8B4-82 (Fab) (Fab, V domains shown)
VH: B1 VH
VL: B1 VL with H89A, Q90S, S92R, S93G
notes: as for B11
B16: 8B4-36 (Fab) (Fab, V domains shown)
VH: B1 VH
VL: B1 VL with H89V, Q90S, S92W, S93G
notes: as for B11
B17: 8B4-80C (Fab) (Fab, V domains shown)
VH: B1 VH
VL: B1 VL with H89M, Q90S, S92W, S93G
notes: as for B11
B18: 8B4-78M-IgG4 (antibody, V domains shown)
VH: B1 VH
VL: B1 VL with H89M, Q90S, S92M, S93G
notes: Full-length IgG4, kappa
B19: 8B4-18C-IgG4 (antibody, V domains shown)
VH: B1 VH
VL: B1 VL with H89M, Q90N, S92L, S93G
notes: Full-length IgG4, kappa

One assay addresses T1, IL-13Rα1 on whole blood cells or PBMCs …. In words: cell-based or functional assay.
Consider B1, for which the “IL-13-stimulated TARC release in whole blood or PBMCs (IC50)” value is roughly 2.6 µg/mL.

For the molecule B2, the “IL-13-stimulated TARC release in whole blood or PBMCs (IC50)” value worked out at 2.5 µg/mL.

A further assay has as its target T2, human IL-13Rα1 on normal human dermal …. Description: cell-based or functional assay.
Consider B3, for which the “inhibition of eotaxin release from NHDF cells upon stimulation with IL-13 (IC50)” value (“inhibition of eotaxin release” below) was roughly 1 µg/mL.

For B4, the “inhibition of eotaxin release” value is 0.75 µg/mL.

Turning to B5, the “inhibition of eotaxin release” value stood at 0.17 µg/mL.

Take B6: the “inhibition of eotaxin release” value worked out at 0.1 µg/mL.

For the molecule B7, the “inhibition of eotaxin release” value was roughly 0.1 µg/mL.

As to B1, the “NHDF IL-13-induced STAT6 phosphorylation (EC50)” value is roughly 2.9 µg/mL.

Consider B8, for which the “inhibition of eotaxin release” value came out at 1.31 µg/mL.

On to B2, for which the “NHDF IL-13-induced STAT6 phosphorylation (EC50)” value was found to be 3.8 µg/mL.

With B9, the “NHDF IL-13-induced STAT6 phosphorylation (EC50)” value was found to be 7 µg/mL.

For a further assay the target is unchanged. In words: cell-based or functional assay. The source holds these as a separate data set.
As for B1, the “NHDF cells IL-13 Eotaxin release (IC50) [on average]” value (shortened to “NHDF cells IL-13 Eotaxin release”) turned out to be 1 µg/mL.

Take B2: the “NHDF cells IL-13 Eotaxin release” value is 9.7 µg/mL.

Take B9: the “NHDF cells IL-13 Eotaxin release” value amounted to 3.5 µg/mL.

The target in the next assay is T3, hIL-13Rα1.ECR (N-terminal FLAG-tagged …). In words: BIACORE SPR, chip-bound hIL-13Rα1 extracellular domain, Fab format.
For the molecule B10, the Kd worked out at 2150 pM.

The molecule B11 had a Kd of 45 pM.

Take B12: the Kd turned out to be 49 pM.

With B13, the Kd came to 170 pM.

In turn, B14 gave a Kd of 85 pM.

Turning to B15, the Kd stood at 73 pM.

B16 yielded a Kd of 85 pM.

For B17, the Kd came out at 250 pM.

The target is the same in a further assay. In words: BIACORE SPR, hIL-13Rα1.ECR immobilized on CM5 chip, antibody as analyte, bivalent model. Here is the method: BIACORE-Based Studies. Human IL-13Rα1.ECR (40 μg/ml in 20 mM Sodium Acetate, pH 4.2) of Example 1 was immobilized to a sensorchip (CM5, Biosensor, Sweden) using standard NHS/EDC chemistry according to the manufacturer's instructions at a set immobilization value, for example, 1000RU. Ethanolamine (1.0 M) pH 8.0 was used to quench residual active esters post hIL-13Rα1.ECR immobilization.
Analysis of binding of antibody (concentration range of 1.4 nM to 150 nM, two-fold dilutions) to the immobilized hIL-13Rα1. ECR was performed in duplicate. Sensorgrams generated were fitted to a bivalent ligand binding model to simultaneously derive association (kₐ) and dissociation (kd) rates and used to determine binding affinity (KD, Biaevaluation software, BIACORE™, Sweden).
B1 yielded a Kd of 4600 pM.

Turning to B2, the Kd came to 2100 pM.

B9: the Kd came to 16500 pM.

The target is the same in another assay. In words: ELISA on plate-bound hIL-13Rα1.ECR.
Regarding B1, the Kd was 267 pM.

Regarding B2, the Kd was 87 pM.

B9 showed a Kd of 360 pM.

Another assay has the same target. Description: KINEXA kinetic exclusion assay, full-length IgG4.
As for B3, the Kd is 680 pM.

B18: the Kd was 38 pM.

Molecule B19 came in with a Kd of 51 pM.
